Data as given in US20140186348A1 (published 2014).
Like-named read-outs stand apart in the source and are kept apart here.

Experiments:
human properdin [1] = target: T1, human properdin (human, UniProt P27918 28-469); assay: ELISA
human properdin [2] = target: T1, human properdin; assay: ELISA, inhibition of properdin binding to C3b
human properdin [3] = target: T1, human properdin; assay: ELISA; remark: listed apart in the source
human properdin [4] = target: T1, human properdin; assay: ELISA; remark: listed apart in the source

T1 sequence (P27918 28-469): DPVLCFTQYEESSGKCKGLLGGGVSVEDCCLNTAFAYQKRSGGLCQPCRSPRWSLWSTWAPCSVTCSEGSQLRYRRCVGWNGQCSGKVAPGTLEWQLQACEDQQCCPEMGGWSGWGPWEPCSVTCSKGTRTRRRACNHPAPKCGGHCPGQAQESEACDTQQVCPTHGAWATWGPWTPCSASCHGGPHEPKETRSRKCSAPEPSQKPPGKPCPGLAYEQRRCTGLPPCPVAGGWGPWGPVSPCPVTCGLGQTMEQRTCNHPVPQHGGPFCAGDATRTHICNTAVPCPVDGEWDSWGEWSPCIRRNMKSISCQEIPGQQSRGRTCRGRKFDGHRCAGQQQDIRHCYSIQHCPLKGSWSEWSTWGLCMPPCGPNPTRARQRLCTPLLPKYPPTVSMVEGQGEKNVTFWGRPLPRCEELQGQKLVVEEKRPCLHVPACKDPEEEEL

Binder	Kd (human properdin [3]) [nM]	Kd (human properdin [4]) [nM]	other results
NM9401-IgG (murine anti-properdin monoclonal antibody, IgG1) (antibody, V domains shown) VH: QVQLQQSAPELARPGASVKMSCTASGYIFTNYPIHWVKQRPGQGLEWIGFIDPGGGYDEPDERFRDRATLTADKSSSTAYMQLSSLTSEDSAIYYCARRGGGYYLDYWGQGTTLTVSS VL: DIQMTQTTSSLSASLGDRVTISCRASQDISFFLNWYQQKPDGTVKLLIYYTSRYHSGVPSRFSGSGSGTDFSLTINNLEQEDFATYFCQHGNTLPWTFGGGTKLEIKR	0.101	–	Kd (human properdin [1]): 0.256 nM; IC50 (human properdin [2]): 10.7 nM
NM9401-Fab (Fab, V domains shown) VH: QVQLQQSAPELARPGASVKMSCTASGYIFTNYPIHWVKQRPGQGLEWIGFIDPGGGYDEPDERFRDRATLTADKSSSTAYMQLSSLTSEDSAIYYCARRGGGYYLDYWGQGTTLTVSS VL: DIQMTQTTSSLSASLGDRVTISCRASQDISFFLNWYQQKPDGTVKLLIYYTSRYHSGVPSRFSGSGSGTDFSLTINNLEQEDFATYFCQHGNTLPWTFGGGTKLEIKR	0.103	–	–
BAP010hum10 (humanized anti-properdin monoclonal antibody) (antibody, V domains shown) VH: QVQLQESGPGLVKPSQTLSLTCTVSGYIFTNYPIHWVRQATGQGLEWMGFIDPGGGYDEPDERFRDRVTITADKSTSTAYMELSSLRSEDTAVYYCARRGGGYYLDYWGQG VL: DIQMTQSPSSLSASVGDRVTITCRASQDISFFLNWYQQKPGKAPKLLIYYTSRYHSGIPPRFSGSGYGTEFTFTISSLEAEDAATYYCQHGNTLPWTFGQG	–	0.0236	–
BAP010hum03 (humanized anti-properdin monoclonal antibody) (antibody, V domains shown) VH: EVQLVQSGAEVKKPGESLRISCKGSGYIFTNYPIHWIRQSPSRGLEWLGFIDPGGGYDEPDERFRDRVTISADKSISTAYLQWSSLKASDTAMYYCARRGGGYYLDYWGQG VL: DIQMTQSPSSLSASVGDRVTITCRASQDISFFLNWYQQKPGKAPKLLIYYTSRYHSGVPSRFSGSGSGTEFTLTISSLQSEDFAVYYCQHGNTLPWTFGQG	–	0.0207	–
BAP010hum02 (humanized anti-properdin monoclonal antibody) (antibody, V domains shown) VH: QVQLQESGPGLVKPSQTLSLTCTVSGYIFTNYPIHWVRQAPGKGLEWVSFIDPGGGYDEPDERFRDRVTISVDTSKNQFSLKLSSVTAADTAVYYCARRGGGYYLDYWGQG VL: EIVLTQSPATLSLSPGERATLSCRASQDISFFLNWFQQRPGQSPRRLIYYTSRYHSGIPPRFSGSGYGTDFTLTINNIESEDAAYYFCQHGNTLPWTFGQG	–	0.0138	–
NM9401-F(ab′)2 (other) VH: QVQLQQSAPELARPGASVKMSCTASGYIFTNYPIHWVKQRPGQGLEWIGFIDPGGGYDEPDERFRDRATLTADKSSSTAYMQLSSLTSEDSAIYYCARRGGGYYLDYWGQGTTLTVSSAKTT VL: DIQMTQTTSSLSASLGDRVTISCRASQDISFFLNWYQQKPDGTVKLLIYYTSRYHSGVPSRFSGSGSGTDFSLTINNLEQEDFATYFCQHGNTLPWTFGGGTKLEIKRADAAPTVSIFPPSSEQLTSGGASVVCFLNN	0.118	–	–
